Literature values as cited in publication PMC6844576.

Target: IL-6 receptor (Homo sapiens) (UniProt P08887)
Assay: 125I-rhIL-6 radioligand binding

UniProt P08887, sequence (P08887 20-365): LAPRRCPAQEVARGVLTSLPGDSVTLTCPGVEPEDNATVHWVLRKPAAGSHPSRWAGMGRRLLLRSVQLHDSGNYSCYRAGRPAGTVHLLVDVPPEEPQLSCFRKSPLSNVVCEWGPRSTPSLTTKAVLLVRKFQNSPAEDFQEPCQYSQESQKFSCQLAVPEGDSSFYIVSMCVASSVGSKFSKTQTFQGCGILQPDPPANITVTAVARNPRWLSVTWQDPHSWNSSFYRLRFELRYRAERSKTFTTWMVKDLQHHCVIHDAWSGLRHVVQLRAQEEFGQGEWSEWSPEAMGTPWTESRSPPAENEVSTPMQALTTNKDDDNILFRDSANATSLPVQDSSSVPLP

Kd: 0.44 nM
Substance: interleukin-6 (from UniProt P05231)
